Patent US20240390509A1, “ANTIBODY-DRUG CONJUGATE, PREPARATION METHOD THEREFOR, AND PHARMACEUTICAL USE THEREOF” (SHANGHAI HANSOH BIOMEDICAL CO., LTD., priority 2021, published 2024)

B1: DS-1062-compound D (y = 4) (conjugate, chains of the INN, looked up)
VH: QVQLVQSGAEVKKPGASVKVSCKASGYTFTTAGMQWVRQAPGQGLEWMGWINTHSGVPKYAEDFKGRVTISADTSTSTAYLQLSSLKSEDTAVYYCARSGFGSSYWYFDVWGQGTLVTVSS
VL: DIQMTQSPSSLSASVGDRVTITCKASQDVSTAVAWYQQKPGKAPKLLIYSASYRYTGVPSRFSGSGSGTDFTLTISSLQPEDFAVYYCQQHYITPLTFGQGTKLEIK
modifications: compound D drug conjugate
B2: DS-1062 (conjugate, chains of the INN, looked up)
VH: B1 VH
VL: B1 VL
modifications: deruxtecan payload

Legend:
Parameters in all cases: species or system nude mice (Balb/c Nude)
[1] = system: human gastric cancer NCI-N87 tumor cell transplant mouse model; test: Dose-dependent in vivo anti-tumor effect, NCI-N87 transplant mouse model (Example 11); details: NCI-N87 xenograft, 1 mg/kg IV Q2W, day 28
Experimental: In order to further study the inhibitory effect of antibody-drug conjugate on tumors formed in vivo, the Trop-2 positive tumor cell human gastric cancer NCI-N87 tumor cell transplant mouse model was used to evaluate the inhibitory effect of candidate molecule on tumor proliferation in vivo. 5×10^6 NCI-N87 cells were injected subcutaneously into 6-week-old nude mice (Balb/c Nude) weighing about […]. After 8 days, the average tumor volume reached 175 mm^3 and grouping was performed, and the antibody-drug conjugate was started to be injected intravenously every 2 weeks at a dose of 2 mg/kg or 1 mg/kg. The control used human IgGI isotype control antibody at a dose of 2 mg/kg. There were 5 mice in each group of the control group or the administration group. The tumor inhibition rate was calculated by measuring the tumor volume.

[2] = system: human head and neck cancer squamous cell carcinoma FaDu tumor cell transplant mouse model; test: In vivo efficacy, FaDu transplant mouse model; details: FaDu xenograft, day 17
Experimental: In order to further study the inhibitory effect of antibody-drug conjugate on tumors formed in vivo, the Trop-2 positive tumor cell human head and neck cancer squamous cell carcinoma FaDu tumor cell transplant mouse model was used to evaluate the inhibitory effect of candidate molecule on tumor proliferation in vivo. The cell suspension mixed with Matrigel in equal proportions was added, and 5×10^6 FaDu cells per animal were injected subcutaneously into 6-week-old nude mice (Balb/c Nude) weighing about […]. After 8 days, the average tumor volume reached 133 mm^3 and grouping was performed, and the antibody-drug conjugate was started to be injected intravenously at a single dose of 3 mg/kg or 1 mg/kg. The control used human IgGI isotype control antibody at a dose of 3 mg/kg. There were 5 mice in each group of the control group or the administration group. The tumor inhibition rate was calculated by measuring the tumor volume.

[3] = system: lung cancer Calu-3 tumor cell transplant mouse model; test: In vivo efficacy, Calu-3 transplant mouse model; details: Calu-3 xenograft, 10 mg/kg IV single dose, day 21
Experimental: In order to further study the inhibitory effect of antibody-drug conjugate on tumors formed in vivo, the Trop-2 positive tumor cell lung cancer Calu-3 tumor cell transplant mouse model was used to evaluate the inhibitory effect of candidate molecule on tumor proliferation in vivo. The cell suspension mixed with Matrigel in equal proportions was added, and 2×10^6 Calu-3 cells per animal were injected subcutaneously into 6-week-old nude mice (Balb/c Nude) weighing about […]. After 8 days, the average tumor volume reached 148 mm^3 and grouping was performed, and the antibody-drug conjugate was started to be injected intravenously at a single dose of 10 mg/kg. The control used human IgG1 isotype control antibody at a dose of 10 mg/kg. There were 5 mice in each group of the control group or the administration group. The tumor inhibition rate was calculated by measuring the tumor volume.

Row | Molecule | Tumor inhibition rate [1] [%] | Tumor inhibition rate ([2]; 1 mg/kg IV single dose) [%] | Tumor inhibition rate ([2]; 3 mg/kg IV single dose) [%] | Tumor inhibition rate [3] [%]
1 | B1 | 78.2 |  |  | 
2 | B2 |  | 74.8 | 200 | 85.61
